Measurements: PMC11746035 (Frontiers in Immunology, 2024)

B1: BD57-028 (antibody, V domains shown)
VH: QITLKESGPTLVKPTQTLTLTCTFSGFSLSASGEGMGWIRQPPGKALEWLALIYWDADERYSPSLRSRLTITKDTSKNQVVLKMTNMNPVDTATYYCAHHSITTVVDYWGQGMLVTVSS
VL: QSALTQPASVSGSPGQSITISCTGTISDVGAFNYVSWYQQHPGRAPKLIIYDVSTRPSGISIRFSGSKSGNTASLTISGLQPEDEADYYCSSYSHTSLVFGTGTKVTVL
notes: heavy chain of BD57-028 (IGHV2-5*02, D56), not modified; light chain of BD57-028; IgG1; source: Expi 293, transfected, purified (protein A)
B2: LY-CoV1404 (antibody, V domains shown)
VH: QITLKESGPTLVKPTQTLTLTCTFSGFSLSISGVGVGWLRQPPGKALEWLALIYWDDDKRYSPSLKSRLTISKDTSKNQVVLKMTNIDPVDTATYYCAHHSISTIFDHWGQGTLVTVSS
VL: QSALTQPASVSGSPGQSITISCTATSSDVGDYNYVSWYQQHPGKAPKLMIFEVSDRPSGISNRFSGSKSGNTASLTISGLQAEDEADYYCSSYTTSSAVFGGGTKLTVL
notes: heavy chain of LY-CoV1404 (IGHV2-5*02, D56), not modified; variable region in PDB 7MMO; light chain of LY-CoV1404; IgG1; source: Expi 293, transfected, purified (protein A)
B3: BD56-595 (antibody, V domains shown)
VH: QITLKESGPTLVKPTQTLTLTCTFSGFSITTAGVGVGWIRQPPGKALEWLALIYWDGDRRYSPSLKNRVDITTDISKNQVVLTMTNMAPVDTATYYCAQHTIDMILDYWGQGTLVTVSS
VL: QSALTQPPSASGSPGQSVTISCTATSSDVGAYNYVSWYQQHPGKAPKLMIYEVNKRPSGVPDRFSGSKSGNTASLTVSGLQAEDEADYYCSSYTDNIVFGTGTRVTVL
notes: heavy chain of BD56-595 (IGHV2-5*02, D56), not modified; light chain of BD56-595; IgG1; source: Expi 293, transfected, purified (protein A)
B4: XGv-265 (antibody, V domains shown)
VH: QITLKESGPTLVKPTQTLTLTCNFSGFSLNTYGVGVGWIRQPPGKALEWLALIYWDGDERYGPFFKNKVTIAKDTSKNQVVLTMTNMDPVDTATYYCARHLIPTIFDYWGQGTLVTVSS
VL: QSALTQPASVSGSPGQSITISCTGTSSDVGGSNYVSWYQHHPDRAPKLLIYEVTNRPSGVSNRFSGSKSANTASLTISGLQAEDEADYYCSSYTTTSTHILFGGGTKLTV
notes: heavy chain of XGv-265 (IGHV2-5*02, D56), not modified; light chain of XGv-265; IgG1; source: Expi 293, transfected, purified (protein A)
B5: BD56-1290 (antibody, V domains shown)
VH: QITLKESGPTLVKPTQTLTLTCTFSGFSLSTSGVGVGWIRQPPGKALEWLALIYWDDDSRYSPSLKTRLTITKDTSKNQVVLTLTNMDPVDTATYYCGHFTIDMIVGYWGQGTLVTVSS
VL: QSALTQPASVSGSPGQSITISCTATSIDVGAFHYVSWYQHHPGKAPKLIIFDVTNRPSGVSNRFSGSKSGNTASLTISGLQAEDEADYYCSSYTDSTVVFGGGTKLTVL
notes: heavy chain of BD56-1290 (IGHV2-5*02, D56), not modified; light chain of BD56-1290; IgG1; source: Expi 293, transfected, purified (protein A)

Target: T1, SARS-CoV-2 WT RBD (SARS-CoV-2, WT (ancestral) strain, UniProt P0DTC2)
T1 construct: also called wild-type L452 RBD
Test: BLI; antibody (IgG1, 11 μg/mL) loaded on AHC2 biosensor to about 1.5 nm; RBD in solution, association 300 s, dissociation 600 s; PBS-TB (PBS, 0.02% v/v Tween-20, 0.1% w/v BSA); 25°C; 1,000 rpm; binding response less than 0.1 considered non-binding
Settings: both partners purified

Binder	binding result
B1	binds
B2	binds
B3	binds
B4	binds
B5	binds
